No end group written: not given here. *: point of attachment. Biotin = O=C1N[C@H]2[C@H](CS[C@H]2CCCCC(=O)*)N1
Assays:
[1] = molecular target: T1, Elongated peptide PMKTMKGPFGG; experiment: competitive ELISA, peptide against coated Biotin-K-PMKTMKGPFG
T1 construct: Selection peptide with one extra glycine at the C-terminus
T1 peptide: PMKTMKGPFGG
Source text: (§1) The PRO-C16 amino acid sequence 1595′-[…] (SEQ ID NO: 1) located at the C-terminal was used to generate an antibody specific for the C-terminal of col-16. It was additionally used to design the selection peptide ([…]; SEQ ID NO: 1) (Table 1). The sequence was BLASTed for homology to other human proteins and species using the NPS@: network protein sequence analysis with the Uniprot/Swiss-Prot database (20). The amino acid sequence is unique to human col-16. A biotinylated peptide (Biotin-K-[…]) was used to coat the streptavidin-coated plates applied in the ELISA. An elongated peptide ([…]; SEQ ID NO: 2), a truncated peptide ([…]; SEQ ID NO: 3), a nonsense peptide ([…]; SEQ ID NO: 5) and a nonsense biotinylated peptide (Biotin-[…]; SEQ ID NO: 6) were included to test the specificity of the antibody.
(§2) The PRO-C16 competitive ELISA procedure was as follows; a 96-well streptavidin-coated microtiter plate was coated with 100 µl of biotinylated peptide (Biotin-K-[…]; SEQ ID NO: 4) dissolved in assay buffer (50 mM PBS-BTB, 4 g/l NaCl, pH 7.4) (final concentration of […]). The plate was incubated for 30 minutes at 20° C. with shaking (300 rpm) and then washed five times in washing buffer (20 mM TRIS, 50 mM NaCl, pH 7.2). A volume of 20 µl of sample/control/selection peptide ([…]; SEQ ID NO: 1) was added followed by immediately addition of 100 µl of monoclonal antibody diluted in assay buffer (final concentration of 62.5 ng/ml). The plate was incubated for 1 hour at 20° C. with shaking followed by five washes in washing buffer. Then, 100 µl of goat anti-mouse HRP-conjugated IgG antibody (Thermo Scientific, Waltham, MA, USA; cat. #31437) diluted in assay buffer (final concentration of 130 ng/ml) was added to each well. […] To stop the reaction of TMB, 100 µl of 1% H₂SO₄ was added and the plate was analyzed in a VersaMax ELISA microplate reader at 450 nm with 650 nm as reference. A standard curve was plotted using a 4-parametric mathematical fit model and data were analyzed using the Softmax Pro v. […]

[2] = molecular target: T2, Truncated peptide PMKTMKGPF; experiment: competitive ELISA, peptide against coated Biotin-K-…
T2 construct: Selection peptide without its C-terminal glycine
T2 peptide: PMKTMKGPF
Source text: as §1, §2

[3] = molecular target: T3, Nonsense peptide VPKDLPPDTT (not fully specified); experiment: as above
T3 construct: Control peptide
T3 peptide: VPKDLPPDTT
Source text: as §1, §2

[4] = molecular target: T4, Nonsense biotinylated peptide Biotin-VPKDLPPDTT; experiment: ELISA with the nonsense biotinylated peptide on streptavidin plates
T4 construct: Control coating peptide
T4 peptide: Biotin-VPKDLPPDTT

Measured: binding result

B1: monoclonal antibody of the PRO-C16 assay, raised against KLH-CGG-… (antibody, mouse IgG2b, kappa, V domains shown)
VH: EVQLQQSGAELVRSGASVKLSCTASGFNIKDYYIHWVKQRPEQGLEWIGWIDHDNGDTEYDPKFQGKATLTADTSSNTAYLQLSSLTSEDTAVYYCNAKGPRYGYEEDWFAYWGQGTLVTVST
VL: DVLMTQTPLSLPVSLGDQASISCRSSQSIVHNNGNTYLEWFLQKPGQSPKLLIYKVSNRFSGVPDRFSGSGSGTDFTLRISRVEADDLGVYYCFQGSHVPRTFGGGTKLEIKR
notes: also called PRO-C16 antibody; C16-C
no binding: all assays above

From patent US20230280350A1 (NORDIC BIOSCIENCE A S, published 2023)
